One block for each substance: values may come before it.
Assays:
[1] = biological target: BgaA β-galactosidase (Bbr_0010) (B. breve UCC2003); experiment: SEC-MALS; Superose 6 10/300 G/L, 50 mM Tris-HCl, 150 mM NaCl, pH 7.5, 0.5 mL/min; dual-angle light scattering (RALS/LALS) and refractometer (OmniSec REVEAL); protein concentrations in Supplementary Table 1; native mass compared with the calculated monomer mass (with His-tag)
[2] = biological target: BgaB β-galactosidase (Bbr_0529) (B. breve UCC2003); experiment: as above
[3] = biological target: BgaC β-galactosidase (B216_08266) (B. bifidum LMG 13195); experiment: as above
[4] = biological target: BgaD β-galactosidase (B8809_0415) (B. longum subsp. longum NCIMB 8809); experiment: as above
[5] = biological target: BgaE β-galactosidase (B8809_0611) (B. longum subsp. longum NCIMB 8809); experiment: as above
[6] = test system: O=[N+]([O-])c1ccccc1O[C@@H]1O[C@H](CO)[C@H](O)[C@H](O)[C@H]1O; experiment: o-nitrophenol release, A420; format: biochemical, Bifidobacterium longum subsp. longum; settings: 0.1 M sodium acetate pH 6.5, 40 °C, unit mM, not in table
From the text: o-nitrophenol release, A420 on BgaF

[7] = biological target: BgaG β-galactosidase (Blon_2016) (B. longum subsp. infantis ATCC 15697); experiment: SEC-MALS; Superose 6 10/300 G/L, 50 mM Tris-HCl, 150 mM NaCl, pH 7.5, 0.5 mL/min; dual-angle light scattering (RALS/LALS) and refractometer (OmniSec REVEAL); protein concentrations in Supplementary Table 1; native mass compared with the calculated monomer mass (with His-tag)

stoichiometry N [1]: 2
Substance: BgaA β-galactosidase (Bbr_0010) (enzyme)

stoichiometry N [2]: 3
Substance: BgaB β-galactosidase (Bbr_0529) (enzyme)

stoichiometry N [3]: 3
Substance: BgaC β-galactosidase (B216_08266) (enzyme)

stoichiometry N [4]: 3
Substance: BgaD β-galactosidase (B8809_0415) (enzyme)

stoichiometry N [5]: 4
Substance: BgaE β-galactosidase (B8809_0611) (enzyme)

Substance: BgaF (Bifidobacterium longum subsp. longum)
Km [6]: 5.178 mM

stoichiometry N [7]: 3
Substance: BgaG β-galactosidase (Blon_2016) (enzyme)

Source: publication PMC8126724, “Infant-Associated Bifidobacterial β-Galactosidases and Their Ability to Synthesize Galacto-Oligosaccharides” (Frontiers in Microbiology, 2021)
